Results on 21 molecules are retold here after patent US20100239597A1 (NORTHWESTERN UNIVERSITY, published 2010).

Sequences and labels used below:
T1: biotin-Aβ1-20 (UniProt P05067 672-691, biotin (site not stated))
T1 construct: domain: Aβ1-20; Monomeric Aβ fragment used as BIACORE antigen; also called biotinylated-Aβ1-20
T1 peptide (looked up): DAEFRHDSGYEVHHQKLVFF

B1: Hu20C2A3 (veneered version of clone A3, IgG2m4 isotype) (antibody, V domains shown)
VH: QVTLKESGPGLLKPTQTLTLTCTLSGFSLSTSGMGVGWFRQPPGKGLEWLAHIWWDDDKSYNPSLKSRLTISKDTSKNQVVLTITNVDPVDTATYYCARRQLGTRGTDAMDYWGQGTTVTVSS
VL: DVVMTQTPLSLPVTPGQPASISCRSSQSILHSNGNTYLEWYLQKPGQSPQLLIYKVSNRFSGVPDRFSGSGSGTDFTLKISRVEAEDVGVYYCLQTTRVPLTFGQGTKLEIKR
notes: To be checked against the listing; also called Hu20C2A3 IgG2m4
B2: 20C2-18A Fab (Fab, V domains shown)
VH: B1 VH with G10A, L12V, L24F, F39I, G46A, I84M, V87M, T104L, G106S, T107I
VL: B1 VL with T7S, Q17E, L94M, T96S, T97S, R98F
B3: 20C2-13A Fab (Fab, V domains shown)
VH: B1 VH with G10A, L12V, L24F, F39I, G46A, I84M, V87M, T104L, G106S, T107I
VL: B1 VL with T7S, Q17E, T97S, R98N
B4: 20C2-7A Fab (Fab, V domains shown)
VH: B1 VH with G10A, L12V, L24F, F39I, G46A, I84M, V87M, T104L, G106S, T107I
VL: B1 VL with T7S, Q17E, Q95N, T96S, R98T
B5: 20C2-1A Fab (Fab, V domains shown)
VH: B1 VH with G10A, L12V, L24F, F39I, G46A, I84M, V87M, T104L, G106S, T107I
VL: B1 VL with T7S, Q17E, L94F, T96A, T97S
B6: 20C2-9A Fab (Fab, V domains shown)
VH: B1 VH with G10A, L12V, L24F, F39I, G46A, I84M, V87M, T104L, G106S, T107I
VL: B1 VL with T7S, Q17E, L94V, T97S, R98L
B7: 20C2-12A Fab (Fab, V domains shown)
VH: B1 VH with G10A, L12V, L24F, F39I, G46A, I84M, V87M, T104L, G106S, T107I
VL: B1 VL with T7S, Q17E, T96S, T97S, R98L
B8: 20C2-8A Fab (Fab, V domains shown)
VH: B1 VH with G10A, L12V, L24F, F39I, G46A, I84M, V87M, T104L, G106S, T107I
VL: B1 VL with T7S, Q17E
B9: 20C2-9A IgG1 (antibody, V domains shown)
VH: B1 VH with G10A, L12V, L24F, F39I, G46A, I84M, V87M, T104L, G106S, T107I
VL: DVVMTQSPLSLPVTPGEPASISCRSSQSILHSNGNTYLEWYLQKPGQSPQLLIYKVSNRFSGVPDRFSGSGSGTDFTLKISRVEAEDVGVYYCVQTSLVPLTFGQGTKLEIK
notes: also called SJ-p2-51
B10: 20C2-23A IgG1 (antibody, V domains shown)
VH: B1 VH with G10A, L12V, L24F, F39I, G46A, I84M, V87M, T104L, G106S, T107I
VL: B9 VL with V94H, T96S, L98K
notes: also called 4P1-40
B11: 20C2-20A IgG1 (antibody, V domains shown)
VH: B1 VH with G10A, L12V, L24F, F39I, G46A, I84M, V87M, T104L, G106S, T107I
VL: B9 VL with V94F, T96G, V99F, L101P, T102V
notes: also called SJ-p3-15
B12: 20C2-12A IgG1 (antibody, V domains shown)
VH: B1 VH with G10A, L12V, L24F, F39I, G46A, I84M, V87M, T104L, G106S, T107I
VL: B9 VL with V94L, T96S
notes: also called 4P1-32
B13: 20C2-10A IgG1 (antibody, V domains shown)
VH: B1 VH with G10A, L12V, L24F, F39I, G46A, I84M, V87M, T104L, G106S, T107I
VL: B9 VL with V94F, T96G, L98R, V99L, L101V, T102S
notes: also called SJ-p3-33
B14: 20C2-18A IgG1 (antibody, V domains shown)
VH: B1 VH with G10A, L12V, L24F, F39I, G46A, I84M, V87M, T104L, G106S, T107I
VL: B9 VL with V94M, T96S, L98F
notes: also called SJ-p1-9M
B15: 20C2-13A IgG1 (antibody, V domains shown)
VH: B1 VH with G10A, L12V, L24F, F39I, G46A, I84M, V87M, T104L, G106S, T107I
VL: B9 VL with V94L, L98N
notes: also called 4p1-20; 4P1-20
B16: 4b-B10 Fab (Fab, V domains shown)
VH: B1 VH with G10A, L12V, F39I, G46A, I84M, V87M, T104A, R105H, G106W, T107L
VL: B1 VL with T7S, Q17E
B17: 4b-D4 Fab (Fab, V domains shown)
VH: B1 VH with G10A, L12V, F39I, G46A, I84M, V87M, T104M, R105A, G106T, T107P
VL: B1 VL with T7S, Q17E
B18: 4a-E10 Fab (Fab, V domains shown)
VH: B1 VH with G10A, L12V, F39I, G46A, I84M, V87M, T104F, R105Q, G106S
VL: B1 VL with T7S, Q17E
B19: 4a-C9 Fab (Fab, V domains shown)
VH: B1 VH with G10A, L12V, F39I, G46A, I84M, V87M, T104Q, R105A, T107H
VL: B1 VL with T7S, Q17E
B20: 4b-A12 Fab (Fab, V domains shown)
VH: B1 VH with G10A, L12V, F39I, G46A, I84M, V87M, T104P, R105E, G106P, T107Q
VL: B1 VL with T7S, Q17E
B21: 4a-D5 Fab (Fab, V domains shown)
VH: B1 VH with G10A, L12V, F39I, G46A, I84M, V87M, T104D, R105N, G106V, T107A
VL: B1 VL with T7S, Q17E

Residue numbers refer to the chain shown, from its start.

The target in one assay is T2, Aβ40 monomer (UniProt P05067 672-711).
T2 construct: domain: Aβ(1-40); also called Aβ monomer; amyloid beta (1-40) peptide
The experiment in a line: titration ELISA on Aβ40 monomer, A450 nm; Hu20C2A3 produced in CHO. For orientation: An ELISA detects its analyte on a solid surface through an enzyme-linked reagent.
Take B1: the “EC50 (read off the curve)” value was about 0.04 µg/mL.

In the next assay the target is T2, Aβ40 monomer. The experiment in a line: titration ELISA on Aβ40 monomer, A450 nm; Hu20C2A3 produced in Pichia.
As to B1, the “EC50 (read off the curve)” value is about 0.04 µg/mL.

The next assay addresses T3, biotinylated ADDL (bADDL) (UniProt P05067 672-713, N-terminal biotin).
T3 construct: domain: Aβ1-42; Panning and ELISA speak of 10% biotinylated ADDL; also called bADDLs; high molecular weight bADDL
The experiment in a line: BIACORE, bADDL as antigen; Fab. For orientation: Surface plasmon resonance follows binding to a sensor surface in real time, without labels.
As to B2, the Kd was 85 nM. Regarding B3, the Kd is 567 nM.

Turning to B4, binding was put at a Kd of 435 nM.

In turn, B5 showed a dissociation constant (Kd) of 85 nM.

B6 had a dissociation constant (Kd) of 40 nM. The molecule B7 showed a Kd of 238 nM. As for B8, the Kd was 13 nM.

The target in the next assay is T3, biotinylated ADDL (bADDL). The experiment in a line: BIACORE, bADDL as antigen; IgG1#2.
For the molecule B9, the dissociation constant Kd was 0.002 nM. Regarding B10, the Kd is 0.066 nM.

For the next assay, the target named is T4, Aβ-derived diffusible ligands (ADDLs) (UniProt P05067 672-713).
T4 construct: domain: Aβ1-42
The experiment in a line: titration ELISA on captured ADDL, A450 nm; Hu20C2A3 produced in CHO. On the procedure: (§1) Affinity maturation was carried out to improve affinity and improve preferential binding to ADDL. To evaluate ADDL binding affinity of the humanized antibodies, BIACORE™ and titration ELISAs were conducted as disclosed herein. Briefly, Streptavidin-coated, 96-well microtiter plates (Sigma, St. Louis, Mo.) were coated with 10% biotinylated ADDL antigen (1 μM). A series of 2-fold dilutions of purified antibody, starting at 500 ng/mL was added to the ADDL captured plates and the plates were incubated for 2 hours at 25° C. After washing five times with PBS solution using a plate washer (Bio-Tek, Winooski, Va.), polyclonal goat anti-human kappa light chain antibody (Biomeda, Foster City, Calif.) was added at a 1/2000 dilution in 3% non-fat milk blocker and incubated at room temperature for 1 hour. A rabbit anti-goat IgG (H+L) HRP-conjugated (Bethyl Laboratories, Inc., Montgomery, Tex.) detection antibody was then added at a 1/2000 dilution in blocking solution and incubated for 1 hour at room temperature. After washing with PBS, HRP substrate, 3,3′,5′5-tetramethylbenzidine (ready-to-use TMB; Sigma, St. Louis, Mo.) was added and the reaction was stopped after 10 minutes with 0.5 N H₂SO₄. Absorbance at wavelength of 450 nm was read in a plate reader (model VICTOR V; Perkin Elmer, Boston, Mass.) and data were processed using EXCEL® work sheet.
Consider B1, for which the “EC50 (read off the curve)” value is about 0.008 µg/mL.

A further assay addresses T3, biotinylated ADDL (bADDL). The experiment in a line: BIACORE, bADDL as antigen; IgG1#1.
In the case of B11, the Kd amounted to 6.9 nM.

In turn, B12 gave a Kd of 0.015 nM. The same measure, in the same setting: with B13 the figure was 7.7 nM.

Molecule B14 returned a Kd of 0.149 nM. B15 yielded a Kd of 0.764 nM.

For B10, the dissociation constant (Kd) came out at 0.085 nM.

In the next assay the target is T1, biotin-Aβ1-20. The experiment in a line: BIACORE, Fab against biotinylated-Aβ1-20.
The molecule B16 gave a Kd of 7.43 nM. Turning to B17, the affinity, expressed as Kd, was 4.87 nM. Molecule B18 yielded a dissociation constant (Kd) of 3.6 nM.

For the molecule B19, the dissociation constant Kd is 2.46 nM. On the same count and under the same terms, with B20 the figure was 10.1 nM; with B21, 3.91 nM.

A further assay deals with T3, biotinylated ADDL (bADDL). The experiment in a line: BIACORE, Fab against bADDL.
B16 registered a dissociation constant Kd of 62.8 nM.

As to B17, the equilibrium dissociation constant (Kd) turned out to be 18.6 nM. For the molecule B18, binding was put at a Kd of 18.5 nM. Still for that read-out and setting: to B19 belongs 8.43 nM; to B20, 154 nM.

Molecule B21 yielded a dissociation constant Kd of 1.17 nM.

Another assay has as its target T4, Aβ-derived diffusible ligands (ADDLs). The experiment in a line: titration ELISA on captured ADDL, A450 nm; Hu20C2A3 produced in Pichia. As to the method: as §1
As to B1, the “EC50 (read off the curve)” value was about 0.009 µg/mL.

For orientation: EC50 (read off the curve) means the concentration needed to bring the measured effect to its halfway point. For orientation: Kd means the equilibrium constant for the complex coming apart.
